Series [1] concerns the target T1, DNA polymerase beta, intact (rat, UniProt P06766 1-335). In words: fluorescence titration.
In series [2] the target is T2, DNA polymerase beta 8-kDa domain (isolated) (rat, UniProt P06766 1-87). The series is described as follows: fluorescence titration.
Series [3] addresses T1, DNA polymerase beta, intact. The series is described as follows: fluorescence titration. This is another data set of the same source.
Series [4] deals with T2, DNA polymerase beta 8-kDa domain …. The series is described as follows: FRET.

Read-outs that look alike come from different tables or passages of the source.

B1: dεA(pεA)19 (ssDNA)
DNA: AAAAAAAAAAAAAAAAAAAA
modifications: all adenines 1,N6-etheno-A (chloroacetaldehyde)
On to B1, for which the binding result in series [1] was “binds”.

B2: dεA(pεA)9 (ssDNA)
DNA: AAAAAAAAAA
modifications: all adenines 1,N6-etheno-A (chloroacetaldehyde)
On to B2, for which, in series [2], the binding result is “binds”.

B3: dεA(pεA)13 (ssDNA)
DNA: AAAAAAAAAAAAAA
modifications: all adenines 1,N6-etheno-A (chloroacetaldehyde)
As to B3, the binding result in series [3] is reported as “binds”.

B4: 5'-Fl-dT(pT)19-CP-3' (ssDNA)
DNA: TTTTTTTTTTTTTTTTTTTT
Consider B4, for which the binding result in series [4] is “binds”.

Values taken from PMC3095670.
